Substrate in series [1]: COc1cc(/C=C/C=O)cc(O)c1O
Nature of the series: HPLC/LC-MS O-methylation assay, Michaelis-Menten fit. In kind it is biochemical, Oryza sativa. The settings on record: 50 mM Tris-HCl pH 7.5, co-substrate S-adenosyl-L-methionine, 20 min, 10-200 µM substrate.

Substrate in series [2]: COc1cc(-c2cc(=O)c3c(O)cc(O)cc3o2)cc(O)c1O
Described as above. Format: biochemical, Oryza sativa. Particulars: 50 mM Tris-HCl pH 7.5, co-substrate S-adenosyl-L-methionine, 20 min, 10-200 µM substrate, 5'-O-methylation giving tricin.

In general, Km refers to the concentration of substrate that gives half-maximal velocity. In general, kcat refers to the number of substrate molecules converted per active site and unit of time at saturation.

B1: OsCAldOMT1 (Oryza sativa Japonica Group) (protein)
chain: MGSTAADMAAAADEEACMYALQLASSSILPMTLKNAIELGLLETLQSAAVAGGGGKAALLTPAEVADKLPSKANPAAADMVDRMLRLLASYNVVRCEMEEGADGKLSRRYAAAPVCKWLTPNEDGVSMAALALMNQDKVLMESWYYLKDAVLDGGIPFNKAYGMTAFEYHGTDARFNRVFNEGMKNHSVIITKKLLDLYTGFDAASTVVDVGGGVGATVAAVVSRHPHIRGINYDLPHVISEAPPFPGVEHVGGDMFASVPRGGDAILMKWILHDWSDEHCARLLKNCYDALPEHGKVVVVECVLPESSDATAREQGVFHVDMIMLAHNPGGKERYEREFRELARAAGFTGFKATYIYANAWAIEFTK
For B1, the Km in series [1] is on record as 132.8 ± 21.3 µM; in series [2], 68.2 ± 14.5 µM. For the same protein, the results for the kcat in series [1] and in series [2] were 373.0 ± 37.9 s⁻¹ and 158.5 ± 16.6 s⁻¹, respectively.
